Assay results as given in US20200318093A1.

How the values were obtained:
[1] = biological target: casein sodium ("MIPRODAN", Nippon Shinyaku); test: cell-based or functional assay
[2] = biological target: porcine-derived acidic gelatin (Sigma)
[3] = biological target: bovine-derived alkaline gelatin (Sigma)
[4] = biological target: milk whey protein ("BiPro", Davisco)
[5] = biological target: α-casein (Sigma)
[6] = biological target: α-lactalbumin (Sigma)
[7] = biological target: cornmeal gluten (Sigma)
[8] = biological target: Rice proteins
[9] = biological target: fish-derived gelatin (Nippi)
[10] = biological target: Soybean proteins
[11] = biological target: casein sodium ("MIPRODAN", Nippon Shinyaku)
[12] = biological target: T1, ovalbumin (Sigma), P01012
T1 chain: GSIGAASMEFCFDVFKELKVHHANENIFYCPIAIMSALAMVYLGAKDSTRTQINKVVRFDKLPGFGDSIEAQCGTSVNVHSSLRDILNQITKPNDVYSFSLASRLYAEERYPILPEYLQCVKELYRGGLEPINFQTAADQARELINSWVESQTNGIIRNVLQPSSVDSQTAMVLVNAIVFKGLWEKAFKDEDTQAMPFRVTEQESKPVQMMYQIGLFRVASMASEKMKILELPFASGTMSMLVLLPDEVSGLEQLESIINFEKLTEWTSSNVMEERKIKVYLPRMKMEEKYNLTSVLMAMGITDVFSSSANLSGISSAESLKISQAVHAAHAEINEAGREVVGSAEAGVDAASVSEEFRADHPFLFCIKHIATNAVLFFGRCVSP

[13] = biological target: skim milk powder (Yotsuba Milk Products, low heat type)
[14] = biological target: casein sodium ("MIPRODAN", Nippon Shinyaku); test: cell-based or functional assay; remark: listed apart in the source
[15] = biological target: Insulin B chain (Sigma)

protein asparaginase of Leifsonia xyli AJ111071 (NITE P-01649) (enzyme)
released ammonia (3 h reaction with culture supernatant, control subtracted) [1]: 0.289 mM

B1: protein asparaginase of Luteimicrobium album AJ111072 (NITE P-01650) (protein)
chain: AVTADDGSTPGTAAYLEDDYDFGDQAVPLANIGGIRGEMTGRIYLPTTAGAHPTVILLHGRHSSCTVPTGGGSVSNPNRWPCIAPQVNIPSYKGYESTAQNLATHGYAVVSISANAINANDNQLAPDYGAQARGQLVLDTLAMLRKANAGEPVSFHDAATDRTVDLASALAVSTEAEDLGSAPTSATNPGDAITPADLVGAFDLDDVGLMGHSRGGEGVVSAVNLNQKLAKPFGIKSVLPLAPVDFGRETAADTNMLVILPYCDGDVSNQQGQHFSDDSRYAYDDDSLRSTLWVMGADHNFFNSVWTPGKYPLSTSDDWGATSTDAVCGPLAPTNVRLSADDQYDVGVAVMSAWFRLTLGGEDQFLPLFDGSADPTLTSVPSAKLWSTATAPATKRADIEAFTANTSRVRVYGSATESVCASAGGRTLPQDAQPCATASALRSTSAMPHWTPASFAPNVPASPMGRFLWTSVSGSTAGSIRVTVPAAARDASEQDALTFKTAPDESVLTGTDLTVTVVDGHGATWSSAVSALNAGAVKRLPISGSTTLNKIVLQQVSVPVSTLAGSIDVSDVREVRFAGATGADGTATGGAYLSDLAFVSSGVGTVAGIASVPTVNVASTVVEEGSSVDEARVAVVLDQPADRTVSAWFTLMGSTADSSNAGLAAQKVTFQPGQTCQAVTVTILGNTVAGAAATTAYKADVSAPDGVIVGAAQFGTFTVREDDALTSGGALAPAVGTQGDVCAEYAARSVVQELTTSGDAVAGSHVTLTGSGYRVGESVAFTDGDAVLGTVLAGADGTAALDWAVPADARVGGHDVTAVGAGSARTAKATVTVRSATTTTLAIAPAAPAVGKAVTLTATVAGPDTAGTVTFADGSTVLGRVAVKDGRAALVVSGGFDAGTHTLTAAFGQTATAEGSVSPAVTFTLVKGKTTTVFVLAATRTTYGTAVAGRIVVGGADGGVATITVGNVVRSVRLDAHGAGSFTVPGTLKPATYRVTASYAGSRTLDTSSARASLTVLKAAPKVTLSAPATARKGATVTVTVKVVGVKGGVRPTGKAVVKLGGKAVKTVSVPSSGVVKVKVRLASAGTAKVTAAYQGSAYYTAASAAAKVKVKVVTK
Amount of generated ammonia [2]: 2.23 mM | Amount of generated ammonia [3]: 0.73 mM | Amount of generated ammonia [4]: 1.17 mM | Amount of generated ammonia [5]: 4.69 mM | Amount of generated ammonia [6]: 1.84 mM | Amount of generated ammonia [7]: 0.41 mM | Amount of generated ammonia [8]: 0.04 mM | Amount of generated ammonia [9]: 1.27 mM | Amount of generated ammonia [10]: 0.98 mM | Amount of generated ammonia [11]: 2.98 mM | Amount of generated ammonia [12]: 0.01 mM | Amount of generated ammonia [13]: 1.22 mM | released ammonia amount (0.68 U/ml enzyme solution) [14]: 1 mM | released ammonia amount (2.7 U/ml enzyme solution) [14]: 1.3 mM

B2: protein asparaginase of Leifsonia xyli AJ111071 (NITE P-01649) (protein)
chain: LPVRRRIALTVAAALIPVVALTTAPAALAAPAPDPVVASGSDWAVTTSPGGYLVTLDLDEPLPMVDDAPTLVVDGEPIGLATESADGLTLGVVTTDPAVASASSVTKGWSSGADDKAAETPEAPATPAVPENTTLTEQLKSFAQLVAVEDPADLGSYTVTEAEYDFGDQAVPLAAIGGIRGELTGKMYLTNATGARPTVVLLHGRHTSCSGTGANPLRWPCGPTQMNIRSYLGYEGTARALASRGYNVLSIAANAVNSNDNQLALDYGAQARGRLVLDTLGMLAKATAGDAVAYDDITTATDTVPSTTTTRTLDEALLRATTRADQPAAASGITAASLKGRFDLGHVGIMGHSRGGEGVVSAATLNQALAKPYGIESVLPLAPVDFGRMTLPDVPTAVFLPYCDGDVSNQQGQHFIDDSRHAFDDDVLRSAVWVMGANHNFFNTVWTPGLYPAATGDDWRTTDTTSTCATTNPTRMTAAQQYQVGVSYMTGFFRLTMGGETRFQSLFDGSVKPSTASTAYADVRTMATQPASKTSLVNDFTETSSLVRVSGGATAAVCTNLTGRTVPQSLPFCATTKASAQVPHWTPGSFAPNVPEFPVTRFLWTGASTTDPAVPSTGELRVTVPAKDRDASRHSQLTLKTAPDEAVQTGTDFRITVVDGAGKTFATTASAVNPLAVNRMPGGTNTTLNKVVLQQLTIPTSTITGIDLTDVREVRLTAAIGADGTGTGGVYLSDLAFDTPSVGTAVAQTRTTVNVAPTTVEEGDGPGTADVAVYLNRAEKSAVTAYVSVIGSATAAVGIGMEKVAFAPGETCKAVTVPTLGNTATSAAPSSAFKVSVTNSTNAVMGASAFANLTVREDDGVTGAAPALAPVGAQGDVCTELAAATTPVPLETSAEDVAPGGSFTLRATGYRAGETVAFRYGATDLGTQVAATDGTASVVVTVPEDADLGPAEATASGSGSGRAATVSVSVLAPTETTVTVTPAKPTAGQ
N-terminus sequence of the insulin B chain after 8 h reaction (protein sequencer) [15]: asparagine of the third residue from the N-terminus of the insulin B chain was converted into aspartic acid by deamidation
